Among the data in paper PMC7241785, “Filaggrin and filaggrin 2 processing are linked together through skin aspartic acid protease activation” (PLoS ONE, 2020) are Kd, koff and kon values, retold here.

For the experiment, the target named is T1, GST-Flag-SASPase 28 kDa recombinant protein (human, UniProt Q53RT3 85-343).
T1 construct: Skin aspartic acid protease, amino acids 1-259 of SASPase 28, corresponding to amino acids 85-343 of SASPase 37 (Q53RT3); Expression vector pEB9; also called GST-SASPase 28; 28 kDa SASPase; source: E. coli BL21, purified (glutathione resin); not shown: GST, N-terminal, kept; Flag, N-terminal, kept
T1 sequence (looked up): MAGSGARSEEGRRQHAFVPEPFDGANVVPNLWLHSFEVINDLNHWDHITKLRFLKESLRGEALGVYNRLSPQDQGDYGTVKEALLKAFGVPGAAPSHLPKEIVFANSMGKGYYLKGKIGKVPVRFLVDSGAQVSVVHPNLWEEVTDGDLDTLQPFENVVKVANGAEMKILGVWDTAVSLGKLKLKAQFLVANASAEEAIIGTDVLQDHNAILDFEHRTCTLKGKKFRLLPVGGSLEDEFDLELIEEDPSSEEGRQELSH
Put plainly: SPR; Biacore T200, 25°C, HBS-EP+; goat anti-GST on CM5 captures GST-Flag-SASPase 28 (1 μM, flow cell 2) and GST (flow cell 1); analyte MBP-HA-FLG2S100 at 0-6 μM, control MBP-HA at 3 and 6 μM; 1:1 Langmuir fit. The following applies: both partners purified.

B1: MBP-HA FLG2 S100 (aa 2-95) (domain or fragment, human, UniProt Q5D862 2-95, looked up)
chain: TDLLRSVVTVIDVFYKYTKQDGECGTLSKGELKELLEKELHPVLKNPDDPDTVDVIMHMLDRDHDRRLDFTEFLLMIFKLTMACNKVLSKEYCK
notes: Filaggrin 2, amino acids 2-95 containing the S100 domain; Expression vector pEB7; also called MBP-HA FLG2 (aa 2-95); source: E. coli BL21, purified (amylose resin); not shown: MBP, N-terminal, kept; HA, N-terminal, kept
Take B1: the Kd came to 488 nM, the koff amounted to 0.00226 s⁻¹ and the kon came out at 4630 M⁻¹ s⁻¹.
